± gives the standard deviation of the averaged measurements.
Test: total protein half-life in vivo (active degradation + dilution); higher = more stable protein
[1] = E. coli NCM3722 delta-clpP delta-lon delta-hslV, growth: N-lim chemostat, doubling time 6 h
[2] = E. coli NCM3722 delta-clpP, growth: N-lim chemostat, doubling time 6 h
[3] = E. coli NCM3722 delta-hslV, growth: N-lim chemostat, doubling time 6 h
[4] = E. coli NCM3722 delta-lon, growth: N-lim chemostat, doubling time 6 h
[5] = E. coli NCM3722 delta-smpB, growth: N-lim chemostat, doubling time 6 h
[6] = wild type E. coli NCM3722, growth: C-lim chemostat, doubling time 3 h
[7] = wild type E. coli NCM3722, growth: C-lim chemostat, doubling time 6 h
[8] = wild type E. coli NCM3722, growth: C-lim chemostat, doubling time 12 h
[9] = wild type E. coli NCM3722, growth: N-lim chemostat, doubling time 6 h
[10] = wild type E. coli NCM3722, growth: N-lim chemostat, doubling time 12 h
[11] = wild type E. coli NCM3722, growth: P-lim chemostat, doubling time 6 h
[12] = wild type E. coli NCM3722, growth: P-lim chemostat, doubling time 12 h

Sequence	total protein half-life in vivo [1] [h]	total protein half-life in vivo [2] [h]	total protein half-life in vivo [3] [h]	total protein half-life in vivo [4] [h]	total protein half-life in vivo [5] [h]	total protein half-life in vivo [6] [h]	total protein half-life in vivo [7] [h]	total protein half-life in vivo [8] [h]	total protein half-life in vivo [9] [h]	total protein half-life in vivo [10] [h]	total protein half-life in vivo [11] [h]	total protein half-life in vivo [12] [h]
MSEQLTDQVLVERVQKGDQKAFNLLVVRYQHKVASLVSRYVPSGDVPDVVQEAFIKAYRALDSFRGDSAFYTWLYRIAVNTAKNYLVAQGRRPPSSDVDAIEAENFESGGALKEISNPENLMLSEELRQIVFRTIESLPEDLRMAITLRELDGLSYEEIAAIMDCPVGTVRSRIFRAREAIDNKVQPLIRR [P0AGB6]	5.283 ± 0.0063	6.37 ± 0.46	6.86 ± 0.17	7.1 ± 0.53	6.14 ± 0.71	3.49 ± 0.3	5.85 ± 0.13	11.8 ± 1.1	5.76 ± 0.9	11.3 ± 1.4	5.63 ± 0.5	12.6 ± 0.15
MDQTYSLESFLNHVQKRDPNQTEFAQAVREVMTTLWPFLEQNPKYRQMSLLERLVEPERVIQFRVVWVDDRNQIQVNRAWRVQFSSAIGPYKGGMRFHPSVNLSILKFLGFEQTFKNALTTLPMGGGKGGSDFDPKGKSEGEVMRFCQALMTELYRHLGADTDVPAGDIGVGGREVGFMAGMMKKLSNNTACVFTGKGLSFGGSLIRPEATGYGLVYFTEAMLKRHGMGFEGMRVSVSGSGNVAQYAIEKAMEFGARVITASDSSGTVVDESGFTKEKLARLIEIKASRDGRVADYAKEFGLVYLEGQQPWSLPVDIALPCATQNELDVDAAHQLIANGVKAVAEGANMPTTIEATELFQQAGVLFAPGKAANAGGVATSGLEMAQNAARLGWKAEKVDARLHHIMLDIHHACVEHGGEGEQTNYVQGANIAGFVKVADAMLAQGVI	3.53 ± 0.36	1.97 ± 0.1	1.8 ± 0.11	2.13 ± 0.14	2.14 ± 0.08	2.94 ± 0.19	4.66 ± 0.28	7.29 ± 0.52	1.88 ± 0.073	2.61 ± 0.4	5.35 ± 0.14	9.48 ± 0.6
MKLKNTLLASALLSAMAFSVNAATELTPEQAAAVKPFDRVVVTGRFNAIGEAVKAVSRRADKEGAASFYVVDTSDFGNSGNWRVVADLYKADAEKAEETSNRVINGVVELPKDQAVLIEPFDTVTVQGFYRSQPEVNDAITKAAKAKGAYSFYIVRQIDANQGGNQRITAFIYKKDAKKRIVQSPDVIPADSEAGRAALAAGGEAAKKVEIPGVATTASPSSEVGRFFETQSSKGGRYTVTLPDGTKVEELNKATAAMMVPFDSIKFSGNYGNMTEVSYQVAKRAAKKGAKYYHITRQWQERGNNLTVSADLYK	5.73 ± 0.21	5.99 ± 0.45	5.8 ± 0.2	5.46 ± 0.12	5.116 ± 0.0047	3.13 ± 0.059	5.73 ± 0.11	10.5 ± 0.55	5.47 ± 0.23	9.68 ± 0.69	5.61 ± 0.079	11.1 ± 0.13
MATLKDIAIEAGVSLATVSRVLNDDPTLNVKEETKHRILEIAEKLEYKTSSARKLQTGAVNQHHILAIYSYQQELEINDPYYLAIRHGIETQCEKLGIELTNCYEHSGLPDIKNVTGILIVGKPTPALRAAASALTDNICFIDFHEPGSGYDAVDIDLARISKEIIDFYINQGVNRIGFIGGEDEPGKADIREVAFAEYGRLKQVVREEDIWRGGFSSSSGYELAKQMLAREDYPKALFVASDSIAIGVLRAIHERGLNIPQDISLISVNDIPTARFTFPPLSTVRIHSEMMGSQGVNLVYEKARDGRALPLLVFVPSKLKLRGTTR	5.54 ± 0.078	6.95 ± 1.2	5.31 ± 0.62	5.72 ± 0.54	5.35 ± 0.066	2.89 ± 0.27	5.94 ± 0.29	9.8 ± 0.15	5.07 ± 0.53	–	6.01 ± 0.76	13.4 ± 2.6
MNATAAQTKSLEWLNRLRANPKIPLIVAGSAAVAVMVALILWAKAPDYRTLFSNLSDQDGGAIVSQLTQMNIPYRFSEASGAIEVPADKVHELRLRLAQQGLPKGGAVGFELLDQEKFGISQFSEQVNYQRALEGELSRTIETIGPVKGARVHLAMPKPSLFVREQKSPSASVTVNLLPGRALDEGQISAIVHLVSSAVAGLPPGNVTLVDQGGHLLTQSNTSGRDLNDAQLKYASDVEGRIQRRIEAILSPIVGNGNIHAQVTAQLDFASKEQTEEQYRPNGDESHAALRSRQLNESEQSGSGYPGGVPGALSNQPAPANNAPISTPPANQNNRQQQASTTSNSGPRSTQRNETSNYEVDRTIRHTKMNVGDVQRLSVAVVVNYKTLPDGKPLPLSNEQMKQIEDLTREAMGFSEKRGDSLNVVNSPFNSSDESGGELPFWQQQAFIDQLLAAGRWLLVLLVAWLLWRKAVRPQLTRRAEAMKAVQQQAQAREEVEDAVEVRLSKDEQLQQRRANQRLGAEVMSQRIREMSDNDPRVVALVIRQWINNDHE	6.55	6.44	–	–	–	2.6 ± 0.24	4.73 ± 0.44	6.98 ± 0.67	–	–	–	–
MNISSLRKAFIFMGAVAALSLVNAQSALAANESAKDMTCQEFIDLNPKAMTPVAWWMLHEETVYKGGDTVTLNETDLTQIPKVIEYCKKNPQKNLYTFKNQASNDLPN [P0AET2]	–	> 8	–	–	–	–	–	–	–	–	–	–
MRYHGDMLLTTPVISTLKQNYPDAKIDMLLYQDTIPILSENPEINALYGISNKGAGTFDKIKNVLSLIKTLRANNYDLVINLTDQWMVALLVRCLPARMKISQLYGHRQHGIWKKSFTHLAPIHGTHIVERNLSVLEPLGITDFYTDTTMSYAEDCWKKMRRELDALGVKDHYVVIQPTARQIFKCWDNDKFSKVIDALQQRGYQVVLTCGPSADDLACVDEIARGCETKPITGLAGKTRFPELGALIDHAVLFIGVDSAPGHIAAAVKTPVISLFGATDHVFWRPWTENIIQFWAGNYQKMPTRHELDRNKKYLSVIPAEDVIAATEKLLPEDAPSADRNAQL	6.088 ± 0.042	6.21 ± 0.39	6.87 ± 0.63	–	4.85 ± 0.32	3.141 ± 0.0067	6.09 ± 0.63	11.7 ± 0.39	5.89 ± 0.19	11.9 ± 0.99	5.59 ± 0.42	11.3 ± 1.1

From the supplement of paper PMC11246515
